The values that follow come from patent US6448390.

For this assay, the target named is amphotropic retrovirus receptor, endogenous on human 293 cells (human) (UniProt Q08357). The experiment in a line: cell-based or functional assay.
Chain of UniProt Q08357 (Q08357 whole entry): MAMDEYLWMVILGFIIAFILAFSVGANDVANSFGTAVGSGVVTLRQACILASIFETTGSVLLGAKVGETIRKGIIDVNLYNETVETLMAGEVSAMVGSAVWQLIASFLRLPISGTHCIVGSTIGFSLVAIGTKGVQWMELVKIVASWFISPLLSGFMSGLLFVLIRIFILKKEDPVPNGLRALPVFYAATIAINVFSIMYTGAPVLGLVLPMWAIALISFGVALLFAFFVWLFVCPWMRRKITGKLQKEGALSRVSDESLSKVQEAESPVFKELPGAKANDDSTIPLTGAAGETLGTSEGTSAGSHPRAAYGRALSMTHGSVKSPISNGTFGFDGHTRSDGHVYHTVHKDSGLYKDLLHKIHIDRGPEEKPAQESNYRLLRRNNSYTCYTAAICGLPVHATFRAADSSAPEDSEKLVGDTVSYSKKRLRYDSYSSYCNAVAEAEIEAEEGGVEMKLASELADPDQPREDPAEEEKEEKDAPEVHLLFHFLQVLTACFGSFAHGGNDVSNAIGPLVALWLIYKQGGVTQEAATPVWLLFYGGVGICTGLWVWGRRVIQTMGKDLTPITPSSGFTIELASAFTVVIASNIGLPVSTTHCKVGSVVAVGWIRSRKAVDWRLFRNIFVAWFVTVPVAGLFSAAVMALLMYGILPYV

Turning to “ampho/eco+Q227R/D243Y fusion envelope protein: residues 1-208 of amphotropic 4070A envelope protein fused between Serine 6 and Proline 7 of MoMLV mutant envelope protein Q227R/D243Y”, the delivery of the lacZ gene (infectious titer) to human 293 cells expressing the amphotropic receptor but not the ecotropic receptor worked out at 1000 fold.
